Measured values as given in the nanobody polyreactivity screen of Harvey et al. (2022).

Test: yeast display, Sf9 membrane polyspecificity reagent, FACS + sequencing; frameworks hold sequencing errors
Outline: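 Polyreactivity labels are assigned by the sorting gate from which each nanobody was recovered. The gates were low and high (top ~1%), set on anti-HA fluorescence for expression and streptavidin fluorescence for reagent binding. Before sorting, galactose-induced (36–48 hours) yeast display cells were stained for 1 hour at 4 °C with 10% biotinylated, detergent-solubilized Sf9 membrane reagent.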

Row | Sequence | polyreactivity (PSR sort gate)
1 | QVQLVESGGGLVQAGGSLRLSCAASGSIFAVNAMGWYRQAPGKERELVASITSGGSTNYADSVKGRFTISRDNAKNTVYLQMNSLKPEDTAVYYCNADRVRAVSRYDYWGQGTQLTVSS | low polyreactivity
2 | QVQLVESGGGLVQAGGSLRLSCAASGSIFAVYAMGWYRQAPGKERELVAVITRSGGSTYYADSVKGRFTISRDNAKNTVYLQMNSLKPEDTAVYYCAARTGYGYTRYEYWGQGTQVTVSS | high polyreactivity
3 | QVQLVESGGGLVQAGGSLRLSCAASGSIFAVYAMGWYRQAPGKERELVAVITRSGGSTYYADSVKGRFTISRDNAKNTVYLQMNTLKPEDTADYYCAARTGYGYTRYEYWGQGTQVTVSS | high polyreactivity
4 | QVQLVESGGGLVQAGGSLRLSCAASGSIFAWYAMGWYRQAPGKERELVADITQSGGSTYYADSVKGRFTISRDNAKNTVYLQMNSLKPEDTAVYYCVDYWYNYLQSGWEDDYWGQGTQVTVSS | low polyreactivity
5 | QVQLVESGGGLVQAGGSLRLSCAASGSIFAWYGMGWSRQAPGKERELVAAISTAGSTNYADSVKGRFTISRDNAKNTVYFQMNSLKPEDTAVYYCAKKSSWYYPERFDYWGQGTQVTVSS | low polyreactivity
6 | QVQLVESGGGLVQAGGSLRLSCAASGSIFAYNAMGWYRQAPGKERELVAAITISGGRTYYADSVKGRFTISRDNAKNTVYLQMNSLKPEDTAVYYCAARYPSGTRKWYGYWGQGTQVTVSS | high polyreactivity
7 | QVQLVESGGGLVQAGGSLRLSCAASGSIFAYNAMGWYRQAPGKERELVASISTGDSTNYADSVKGRFTISRENAKNTDYLQMNSMKPEDTAVYYCNADSYPYYVYGSNVYWGQGSQVTVSS | low polyreactivity
8 | QVQLVESGGGLVQAGGSLRLSCAASGSIFAYYAMGWSRQAPGKERELVASIDWSGDLYVRDSVKGRFTISRDNAKNTVYLQMNSLKPEDTAVYYCAADVGFGVVFYDYWGQGTQVTVSS | low polyreactivity
9 | QVQLVESGGGLVQAGGSLRLSCAASGSIFAYYAMGWYRQAPGKERELVADITSSGGITYYADSVKGRFTISRDNAKNTVYLQMNSLKPEDTAVYYCNADSWAIGGGSYPYDYWGQGTQVTVSS | low polyreactivity
10 | QVQLVESGGGLVQAGGSLRLSCAASGSIFCSYAMAWYRQAPGKERELVASITRSGGSTYYADSVKGRFTISRDNAKNTVYLQMNSLKPEDTAVYYCNARRTTRWGSSKYEYDYWGQGTQVTVSS | high polyreactivity
11 | QVQLVESGGGLVQAGGSLRLSCAASGSIFCSYAMGWYRQAPGKERELVAAITWSGGNTYADSVKGRFTISRDNAKNTDYLQMNSLKPEDTAVYYCAADPAHGTKWYVYPSHDDYWGQGTQGTVSS | low polyreactivity
12 | QVQLVESGGGLVQAGGSLRLSCAASGSIFDAYAMGWYRQATGKERELVAAITYSGGSTYYADSVKGRFTISRDNAKNTVYLQMNSLKPEDTAVYYCNTDSRVRTWFRAFTYDSWGQGTQVTVSS | low polyreactivity
13 | QVQLVESGGGLVQAGGSLRLSCAASGSIFDDYAMGWYRQAPGKEREFVATITTSGGNTYYADSVKGRFTISRDNAKNTVYLQMHSLKPEDTAVYYCAKDRVKSPYLVYDSWGQGTQVTVSS | low polyreactivity
14 | QVQLVESGGGLVQAGGSLRLSCAASGSIFDDYAMGWYRQAPGKERELVAAITSGGSTYYADSVKGRFTISRDNAKNTVYLQMTSLKPEDTAVYYRATRYHWSSTFAPVGAGRGGDSWGQGTQVTVSS | low polyreactivity
15 | QVQLVESGGGLVQAGGSLRLSCAASGSIFDDYTMVWYRQAPGKEREFVATITSSGSTYYADSVKGRFTISRDNAKNTVYLQMNSLKPEDTAVYYCNADDTYYPLGGITGYDYWGQGTQVTVSS | low polyreactivity
16 | QVQLVESGGGLVQAGGSLRLSCAASGSIFDEYAMGWYRQAPGKERELVAAITRTGGRTYYADSVKGRFTISRDNAKNTVYLQMNSLKPEDTAVYYSAKGTNYRDDYWGQGTQVTVSS | low polyreactivity
17 | QVQLVESGGGLVQAGGSLRLSCAASGSIFDEYAMGWYRQAPGKERELVAAITYSGGDTYYADSVKGRFTISRDNAKNTVYLQMNSLKPEDTAVYYCAVDTPLEYYHQQAYVAGEYWGQGTQVTVSS | low polyreactivity
18 | QVQLVESGGGLVQAGGSLRLSCAASGSIFDFSAMGWYRQAPGKERELVAAISGSGGSTYYADSVKGRFTISRDNAKNTVYLQMNSLKPEDTAVYYCSYYYWGQGTQVTVSS | low polyreactivity
19 | QVQLVESGGGLVQAGGSLRLSCAASGSIFDGNAMGWYREAPGKERELVAAISRRAGSTYYADSVKGRFTISRDNAKNTVYLQMNSLNPEDTAVYYCAASLYVPRFSRLGYDYWGQGTHVTVSS | high polyreactivity
20 | QVQLVESGGGLVQAGGSLRLSCAASGSIFDGYGMGWYRQAAGKERELVAGITSGGSTYYADSVKGRFTFSRDNAKNTVYLQMNSLIPEDTAVYYCATVVRYSNARGDYWGQGTQVTVSS | low polyreactivity
21 | QVQLVESGGGLVQAGGSLRLSCAASGSIFDHYARGWYRQAPGKDRELVAAISRSAGSTYYADSVKGRFTISRDHAKNTVYLQMNSLKPEDTAVYYCAADGKYYHRRPGWPIYDYWGQGTQVTVSS | high polyreactivity
22 | QVQLVESGGGLVQAGGSLRLSCAASGSIFDINAMGWYRQAPGKERELVADISWSGGRTYYADSVKGRFTISRDNAKNTVYLQMNSLKPEDTAVYYCNAQDSRFWYAEYDYWGQGNQVTVSS | low polyreactivity

Row | Sequence | polyreactivity (PSR sort gate)
23 | QVQLVESGGGLVQAGGSLRLSCAASGSIFDIYAMAWYRQAPGKERELVARIRGSGGRTYYADSVKGRFTISRDNAKNTVYLQMNSLKPEDTAVYYCNAGVRAVNRKYDYWGQGTQVTVSS | high polyreactivity
24 | QVQLVESGGGLVQAGGSLRLSCAASGSIFDIYAMGWYREAPGKERELVAAISGRGGSTYADSVKGRFTISRDNAKNTVYLQMNSLKPEDTAVYYCATERHRFGGLYYWGQGTQVTVSS | low polyreactivity
25 | QVQLVESGGGLVQAGGSLRLSCAASGSIFDIYAMGWYRQAPGKERELVAAISWIGDSTSYAESVKGRFTISRDNAKNTVYLQMNSLKPEDTAVYYCNAVVQGLADFQKYDYWGQGTQVTVSS | low polyreactivity
26 | QVQLVESGGGLVQAGGSLRLSCAASGSIFDIYGMGWYRQAPGKERELVASISGGAGSTNYADSVKGRFTISRDNAKNTVYLQMNSLNPEDTAVYYCAAEVYVPDYFQHKFDVEYEYWGQGTQVTVSS | low polyreactivity
27 | QVQLVESGGGLVQAGGSLRLSCAASGSIFDLNAMGWYRQAPGKERELVAAISKSGGSTYYADSVKGRFTISRDNAKNTVYLQMNSLKPEDTAVYYCAARYHYPGNWYNYWGQGTQVTVSS | low polyreactivity
28 | QVQLVESGGGLVQAGGSLRLSCAASGSIFDLYAMGWYRQAPGKERELVADISIADSTNYADSVKGRFTISRDNAKNTVYLQMNSLKPEDTGVYYCNADVWWYSYEYDYWGQGTQVTVSS | low polyreactivity
29 | QVQLVESGGGLVQAGGSLRLSCAASGSIFDLYAMGWYRQAPGTERELVADISIADSTNYADSVKGRFTISRDNAKNTVYLQMNSLKPEDTAVYYCNADVWWYSYEYDYWGQGTQVTVSS | low polyreactivity
30 | QVQLVESGGGLVQAGGSLRLSCAASGSIFDNAMGWYRQAPGKERELVAAISLSGSRTYYADSVKGRFTISRDNAKNTDYLQMNSLKPEDTAVYYCNTELVYYSTYDYWGQGTQVTVSS | low polyreactivity
31 | QVQLVESGGGLVQAGGSLRLSCAASGSIFDNNAMGWYRQAPGKERELVAAISRSGGSTYYADSVKGRFTISRDNAKNTVYLQMNSLKPDDTAVYYCAALPSRPRGYDYWGQGTQVTVSS | high polyreactivity
32 | QVQLVESGGGLVQAGGSLRLSCAASGSIFDNYAMGWYRQAPGKERELVAAITSSGNTSYADSVKGRFTISRDNAKNTVYLQMNSLKPEDTAVYYCNADSQVKYTYNNHFDYWGQGTQVTVSS | low polyreactivity
33 | QVQLVESGGGLVQAGGSLRLSCAASGSIFDPNAMGWYRQAPGKERELVAAISTSTGNTYYADSVKGRCTISRDNAKNTVYLQMNSLKPEDTAVYYCAAKGTPSYGSYHYDMDYWGQGTQVTVSS | low polyreactivity
34 | QVQLVESGGGLVQAGGSLRLSCAASGSIFDPNAMGWYRQAPGKERELVAAITSGGGSTYYADSVKGRFTISRDNAKNTVYLEMNSLKPEDTAVYYCNKVFVLPYKFVAWFDYWGQGTQVTVSS | low polyreactivity
35 | QVQLVESGGGLVQAGGSLRLSCAASGSIFDPYAMGWYIQAPGKERELVAVINDGGRTTYADSVKGRFTISRDNAKNTVYLQMNSLKPEDTAVYYCAADVGYFKSDYWGQGTQVTVSS | low polyreactivity
36 | QVQLVESGGGLVQAGGSLRLSCAASGSIFDPYAMGWYRQAPGKERELVAAISFRGGGTYYADSVKGRFTISRDNAKNTVYLQMNSLKPEDTAVYYCNVDYYWISGYVGSYIEFDYWGQGTQVTVSS | low polyreactivity
37 | QVQLVESGGGLVQAGGSLRLSCAASGSIFDPYAMGWYRQAPGKERELVAAISWSDSSTYYADSVKGRFTISRDNEKNTVYLQMNSLKPEDTAVYYSAAPSRYRYYWGNYWGQGTQVTVSS | high polyreactivity
38 | QVQLVESGGGLVQAGGSLRLSCAASGSIFDPYAMGWYRQAPGKERELVAAITASGSSTYYADSVKGRFTISRDNAKNTVYLQMNSLKPEDTAVYYCAADRANWEYLLSWLGYDYWGQGTQVTVSS | low polyreactivity
39 | QVQLVESGGGLVQAGGSLRLSCAASGSIFDQYTMGWSRQAPGKERELVAAIRFSGGSTSYADSVKGRFTISRDNAKNTVYLQMNSLIPEDTAVYYCNVDAITWWDWEDFDYWGQGTQVTVSS | low polyreactivity
40 | QVQLVESGGGLVQAGGSLRLSCAASGSIFDRNAMGRYRQAPGKERELVAAITSGGSTYYADSVKGRFTISRDNAKNTVYFQMNSLKPEDTAVYYCNADTDPPVPLYYWGQGTQVNVSS | low polyreactivity
41 | QVQLVESGGGLVQAGGSLRLSCAASGSIFDRNAMGWYRQAPGKERELVAAISFSGGSTYYADSVKGRFTISRDNAKNTVYLQMNSLKPEDTAVYYCAKAGRYANLPYVYWGQGTQVTVSS | high polyreactivity
42 | QVQLVESGGGLVQAGGSLRLSCAASGSIFDRNAMGWYRQAPGKERELVSAISRGGRTYYADSVKGRFTISRDNAKNTVYLQMNSLKPEDTAVYDCAAGYPSAWAYTTDDYWGQGTQVTVSS | low polyreactivity
43 | QVQLVESGGGLVQAGGSLRLSCAASGSIFDRYAMGWYRQAPGKESELVAAITCGTSTYYADSVKGRFTISRDNAKNTVYLKMNSLKPEDTAVYYCNKGYSSSMDYWGQGTQVTVSS | low polyreactivity
